The source of these data is patent US20130096058A1.

This experiment concerns the target Murine CD40L on the Th2 cell line D10.G4.1 (mouse) (UniProt P27548). Put plainly: cell-based or functional assay.

Murine CD40L on the Th2 cell line D10.G4.1 (mouse), sequence (P27548 whole entry): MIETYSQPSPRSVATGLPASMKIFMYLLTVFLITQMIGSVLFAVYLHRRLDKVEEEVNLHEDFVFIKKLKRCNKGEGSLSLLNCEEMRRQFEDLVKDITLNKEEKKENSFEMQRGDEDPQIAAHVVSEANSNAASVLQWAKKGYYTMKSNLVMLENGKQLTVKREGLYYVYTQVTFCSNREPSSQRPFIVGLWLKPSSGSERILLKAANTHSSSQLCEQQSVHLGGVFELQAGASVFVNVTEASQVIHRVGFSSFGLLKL

Substance MR1 antibody came in with an IC50 of inhibition of MuCD40L-induced CD86 expression on B cells of 100 µM.
